Measured values reported in the supplement of paper PMC10567573.

B1: FBXO34 (parent)
chain: ASSVESTLPVLEASSWKKQVSHDF
B2: OAS1 (parent)
chain: YIGTHEYPHFSHRPSTLQAASTPQ
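Further: lentivirally expressed fusions sorted by FACS into six bins by GFP to DsRed ratio, PSI derived from sequencing read proportions per bin multiplied by bin number.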

Variants of: B1
Assay: protein stability index of a GFP-peptide fusion (GPS, HEK-293T) (PSI 1-6); higher = more stable
Settings: c terminus: a fixed tail appended
Work on ARSVESTLPVLEASSWKKQVSHDF [S2R] yielded a protein stability index of 2.8.
Variant AVSVESTLPVLEASSWKKQVSHDF [S2V] has a protein stability index of 2.92.
With ALSVESTLPVLEASSWKKQVSHDF [S2L] the protein stability index was 1.47.
Work on ANSVESTLPVLEASSWKKQVSHDF [S2N] yielded a protein stability index of 2.58.
ATSVESTLPVLEASSWKKQVSHDF [S2T] showed a protein stability index of 3.39.
ACSVESTLPVLEASSWKKQVSHDF [S2C] gave a protein stability index of 1.85.
In the case of AGSVESTLPVLEASSWKKQVSHDF [S2G], the protein stability index is reported as 2.81.
For AYSVESTLPVLEASSWKKQVSHDF [S2Y], the protein stability index was 2.28.
In the case of ADSVESTLPVLEASSWKKQVSHDF [S2D], the protein stability index is reported as 3.18.
AESVESTLPVLEASSWKKQVSHDF [S2E] gave a protein stability index of 3.94.
In the case of AASVESTLPVLEASSWKKQVSHDF [S2A], the protein stability index is reported as 2.81.
With AKSVESTLPVLEASSWKKQVSHDF [S2K] the protein stability index was 3.04.
AWSVESTLPVLEASSWKKQVSHDF [S2W] showed a protein stability index of 2.56.
APSVESTLPVLEASSWKKQVSHDF [S2P] gave a protein stability index of 3.46.
For AFSVESTLPVLEASSWKKQVSHDF [S2F], the protein stability index was 1.92.
AQSVESTLPVLEASSWKKQVSHDF [S2Q] gave a protein stability index of 3.09.
In the case of AISVESTLPVLEASSWKKQVSHDF [S2I], the protein stability index is reported as 2.26.
In the case of AHSVESTLPVLEASSWKKQVSHDF [S2H], the protein stability index is reported as 2.4.

Variants of: B2
Assay: as above
Settings: c terminus: a fixed tail appended
Variant YIGTHEYPHFSHRPSTLQAAKTPQ [S21K] has a protein stability index of 1.81.
Variant YIGTHEYPHFSHRPSTLQAARTPQ [S21R] has a protein stability index of 2.
Variant YIGTHEYPHFSHRPSTLQAADTPQ [S21D] has a protein stability index of 1.89.
YIGTHEYPHFSHRPSTLQAALTPQ [S21L] gave a protein stability index of 1.53.
YIGTHEYPHFSHRPSTLQAAMTPQ [S21M] gave a protein stability index of 1.94.
For YIGTHEYPHFSHRPSTLQAAETPQ [S21E], the protein stability index was 2.24.
With YIGTHEYPHFSHRPSTLQAAYTPQ [S21Y] the protein stability index was 1.95.
YIGTHEYPHFSHRPSTLQAATTPQ [S21T] showed a protein stability index of 2.07.
With YIGTHEYPHFSHRPSTLQAAFTPQ [S21F] the protein stability index was 1.68.
With YIGTHEYPHFSHRPSTLQAAWTPQ [S21W] the protein stability index was 2.42.
With YIGTHEYPHFSHRPSTLQAAVTPQ [S21V] the protein stability index was 1.89.
In the case of YIGTHEYPHFSHRPSTLQAAPTPQ [S21P], the protein stability index is reported as 1.67.
For YIGTHEYPHFSHRPSTLQAAITPQ [S21I], the protein stability index was 1.97.
Variant YIGTHEYPHFSHRPSTLQAANTPQ [S21N] has a protein stability index of 1.85.
YIGTHEYPHFSHRPSTLQAAGTPQ [S21G] showed a protein stability index of 2.23.
For YIGTHEYPHFSHRPSTLQAAQTPQ [S21Q], the protein stability index was 2.
In the case of YIGTHEYPHFSHRPSTLQAACTPQ [S21C], the protein stability index is reported as 2.77.
With YIGTHEYPHFSHRPSTLQAAATPQ [S21A] the protein stability index was 2.1.
In the case of YIGTHEYPHFSHRPSTLQAAHTPQ [S21H], the protein stability index is reported as 2.
Work on YIGTHEYPHFSHRPSTLQAYSTPQ [A20Y] yielded a protein stability index of 1.89.
Work on YIGTHEYPHFSHRPSTLQAASTPT [Q24T] yielded a protein stability index of 2.04.
For YIGTHEYPHFSHRPSTLQAASTPA [Q24A], the protein stability index was 1.66.
YIGTHEYPHFSHRPSTLQAASTPK [Q24K] showed a protein stability index of 1.81.
YIGTHEYPHFSHRPSTLQAASTPD [Q24D] showed a protein stability index of 2.06.
YIGTHEYPHFSHRPSTLQAASTPS [Q24S] showed a protein stability index of 1.94.
With YIGTHEYPHFSHRPSTLQAASTPM [Q24M] the protein stability index was 1.87.
In the case of YIGTHEYPHFSHRPSTLQAASTPY [Q24Y], the protein stability index is reported as 2.4.
YIGTHEYPHFSHRPSTLQAASTPF [Q24F] showed a protein stability index of 1.77.
Variant YIGTHEYPHFSHRPSTLQAASTPN [Q24N] has a protein stability index of 2.07.
YIGTHEYPHFSHRPSTLQAASTPV [Q24V] gave a protein stability index of 2.2.
Work on YIGTHEYPHFSHRPSTLQAASTPR [Q24R] yielded a protein stability index of 1.86.
YIGTHEYPHFSHRPSTLQAASTPW [Q24W] gave a protein stability index of 2.25.
With YIGTHEYPHFSHRPSTLQAASTPE [Q24E] the protein stability index was 2.25.
For YIGTHEYPHFSHRPSTLQAASTPL [Q24L], the protein stability index was 2.29.
Variant YIGTHEYPHFSHRPSTLQAASTPG [Q24G] has a protein stability index of 2.2.
Work on YIGTHEYPHFSHRPSTLQAASTPH [Q24H] yielded a protein stability index of 2.15.
Variant YIGTHEYPHFSHRPSTLQAASTPI [Q24I] has a protein stability index of 1.92.
YIGTHEYPHFSHRPSTLQAASTPC [Q24C] showed a protein stability index of 1.69.
With YIGTHEYPHFSHRPSTLQAASTRQ [P23R] the protein stability index was 1.86.
In the case of YIGTHEYPHFSHRPSTLQAASTWQ [P23W], the protein stability index is reported as 1.97.
YIGTHEYPHFSHRPSTLQAASTCQ [P23C] gave a protein stability index of 1.88.
With YIGTHEYPHFSHRPSTLQAASTGQ [P23G] the protein stability index was 1.53.
YIGTHEYPHFSHRPSTLQAASTMQ [P23M] gave a protein stability index of 1.89.
Variant YIGTHEYPHFSHRPSTLQAASTNQ [P23N] has a protein stability index of 2.54.
For YIGTHEYPHFSHRPSTLQAASTQQ [P23Q], the protein stability index was 2.23.
YIGTHEYPHFSHRPSTLQAASTFQ [P23F] gave a protein stability index of 1.72.
In the case of YIGTHEYPHFSHRPSTLQAASTLQ [P23L], the protein stability index is reported as 1.73.
Variant YIGTHEYPHFSHRPSTLQAASTEQ [P23E] has a protein stability index of 2.37.
Variant YIGTHEYPHFSHRPSTLQAASTTQ [P23T] has a protein stability index of 2.48.
YIGTHEYPHFSHRPSTLQAASTIQ [P23I] showed a protein stability index of 2.74.
Variant YIGTHEYPHFSHRPSTLQAASTSQ [P23S] has a protein stability index of 2.27.
YIGTHEYPHFSHRPSTLQAASTYQ [P23Y] gave a protein stability index of 1.75.
Variant YIGTHEYPHFSHRPSTLQAASTHQ [P23H] has a protein stability index of 2.4.
YIGTHEYPHFSHRPSTLQAASTKQ [P23K] gave a protein stability index of 1.91.
YIGTHEYPHFSHRPSTLQAASTVQ [P23V] gave a protein stability index of 1.81.
Variant YIGTHEYPHFSHRPSTLQAASTDQ [P23D] has a protein stability index of 2.15.
YIGTHEYPHFSHRPSTLQAASTAQ [P23A] gave a protein stability index of 2.14.
Variant YIGTHEYPHFSHRPSTLQAASEPQ [T22E] has a protein stability index of 1.8.
In the case of YIGTHEYPHFSHRPSTLQAASYPQ [T22Y], the protein stability index is reported as 1.71.
For YIGTHEYPHFSHRPSTLQAASWPQ [T22W], the protein stability index was 1.53.
YIGTHEYPHFSHRPSTLQAASNPQ [T22N] gave a protein stability index of 2.1.
Work on YIGTHEYPHFSHRPSTLQAASKPQ [T22K] yielded a protein stability index of 2.35.
With YIGTHEYPHFSHRPSTLQAASAPQ [T22A] the protein stability index was 2.51.
Variant YIGTHEYPHFSHRPSTLQAASCPQ [T22C] has a protein stability index of 1.62.
Variant YIGTHEYPHFSHRPSTLQAASVPQ [T22V] has a protein stability index of 1.93.
Work on YIGTHEYPHFSHRPSTLQAASDPQ [T22D] yielded a protein stability index of 2.64.
Variant YIGTHEYPHFSHRPSTLQAASSPQ [T22S] has a protein stability index of 1.38.
For YIGTHEYPHFSHRPSTLQAASIPQ [T22I], the protein stability index was 2.13.
Work on YIGTHEYPHFSHRPSTLQAASRPQ [T22R] yielded a protein stability index of 1.68.
YIGTHEYPHFSHRPSTLQAASLPQ [T22L] gave a protein stability index of 1.78.
YIGTHEYPHFSHRPSTLQAASHPQ [T22H] showed a protein stability index of 1.6.
YIGTHEYPHFSHRPSTLQAASQPQ [T22Q] showed a protein stability index of 2.31.
YIGTHEYPHFSHRPSTLQAASGPQ [T22G] gave a protein stability index of 1.59.
In the case of YIGTHEYPHFSHRPSTLQAASFPQ [T22F], the protein stability index is reported as 1.93.
Variant YIGTHEYPHFSHRPSTLQAASPPQ [T22P] has a protein stability index of 2.17.
For YIGTHEYPHFSHRPSTLQAASMPQ [T22M], the protein stability index was 2.27.
